For experiment [1], the target named is T1, RNAP β′ subunit with chromosomally encoded C-terminal His10-tag (B. subtilis, UniProt P37871 1-1199).
T1 construct: RNAP β′ subunit, B. subtilis; source: B. subtilis strains MH5636, LK782, LK1032; in lysate and purified as part of RNAP (Ni-NTA, heparin, SEC); not shown: His10, C-terminal, kept
Kind of experiment: co-purification; RNAP captured from lysates of stationary phase B. subtilis by the C-terminal His10-tag on β′ (Ni-NTA), then heparin column and SEC, 4 °C; content of the fractions told from gels (strains MH5636, LK782, LK1032). As to conditions: partners not purified.

Experiment [2] addresses T2, HelD (recombinant B. subtilis NTPase HelD) (Bacillus subtilis (strain 168), UniProt O32215).
T2 chain: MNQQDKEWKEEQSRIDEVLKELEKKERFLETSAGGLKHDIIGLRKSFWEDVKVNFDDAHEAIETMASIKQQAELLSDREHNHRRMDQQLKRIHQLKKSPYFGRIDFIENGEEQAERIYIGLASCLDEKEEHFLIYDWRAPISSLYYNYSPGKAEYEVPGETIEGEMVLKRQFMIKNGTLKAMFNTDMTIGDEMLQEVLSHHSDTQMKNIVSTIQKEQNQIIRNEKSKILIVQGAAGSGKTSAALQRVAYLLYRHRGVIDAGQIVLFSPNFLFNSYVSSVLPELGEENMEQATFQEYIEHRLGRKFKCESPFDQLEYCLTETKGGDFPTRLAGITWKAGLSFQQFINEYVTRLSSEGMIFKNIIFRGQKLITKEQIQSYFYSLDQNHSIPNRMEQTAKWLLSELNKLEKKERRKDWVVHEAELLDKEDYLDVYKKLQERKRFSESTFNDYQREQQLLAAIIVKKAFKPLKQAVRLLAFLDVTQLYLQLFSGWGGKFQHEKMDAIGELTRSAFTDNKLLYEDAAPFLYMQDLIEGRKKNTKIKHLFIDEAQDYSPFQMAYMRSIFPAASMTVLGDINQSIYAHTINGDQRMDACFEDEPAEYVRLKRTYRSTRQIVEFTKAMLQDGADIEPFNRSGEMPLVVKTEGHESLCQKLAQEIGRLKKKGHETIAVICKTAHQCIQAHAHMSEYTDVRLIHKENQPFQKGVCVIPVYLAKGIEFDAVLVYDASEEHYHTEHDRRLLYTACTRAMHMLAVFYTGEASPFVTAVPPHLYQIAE
The experiment can be described thus: analytical SEC with SDS-PAGE.

Experiment [3] deals with T1, RNAP β′ subunit with chromosomally …. Kind of experiment: SEC; HelD release assay: the same RNAP-HelD complex mixed with 5 mM Mg^2+-ATPγS, AMPPNP or ATP in buffer I; Superdex 200 Increase PC 3.2, 4 °C; fractions on SDS-PAGE. As to conditions: both partners purified.

T1 sequence (P37871 whole entry): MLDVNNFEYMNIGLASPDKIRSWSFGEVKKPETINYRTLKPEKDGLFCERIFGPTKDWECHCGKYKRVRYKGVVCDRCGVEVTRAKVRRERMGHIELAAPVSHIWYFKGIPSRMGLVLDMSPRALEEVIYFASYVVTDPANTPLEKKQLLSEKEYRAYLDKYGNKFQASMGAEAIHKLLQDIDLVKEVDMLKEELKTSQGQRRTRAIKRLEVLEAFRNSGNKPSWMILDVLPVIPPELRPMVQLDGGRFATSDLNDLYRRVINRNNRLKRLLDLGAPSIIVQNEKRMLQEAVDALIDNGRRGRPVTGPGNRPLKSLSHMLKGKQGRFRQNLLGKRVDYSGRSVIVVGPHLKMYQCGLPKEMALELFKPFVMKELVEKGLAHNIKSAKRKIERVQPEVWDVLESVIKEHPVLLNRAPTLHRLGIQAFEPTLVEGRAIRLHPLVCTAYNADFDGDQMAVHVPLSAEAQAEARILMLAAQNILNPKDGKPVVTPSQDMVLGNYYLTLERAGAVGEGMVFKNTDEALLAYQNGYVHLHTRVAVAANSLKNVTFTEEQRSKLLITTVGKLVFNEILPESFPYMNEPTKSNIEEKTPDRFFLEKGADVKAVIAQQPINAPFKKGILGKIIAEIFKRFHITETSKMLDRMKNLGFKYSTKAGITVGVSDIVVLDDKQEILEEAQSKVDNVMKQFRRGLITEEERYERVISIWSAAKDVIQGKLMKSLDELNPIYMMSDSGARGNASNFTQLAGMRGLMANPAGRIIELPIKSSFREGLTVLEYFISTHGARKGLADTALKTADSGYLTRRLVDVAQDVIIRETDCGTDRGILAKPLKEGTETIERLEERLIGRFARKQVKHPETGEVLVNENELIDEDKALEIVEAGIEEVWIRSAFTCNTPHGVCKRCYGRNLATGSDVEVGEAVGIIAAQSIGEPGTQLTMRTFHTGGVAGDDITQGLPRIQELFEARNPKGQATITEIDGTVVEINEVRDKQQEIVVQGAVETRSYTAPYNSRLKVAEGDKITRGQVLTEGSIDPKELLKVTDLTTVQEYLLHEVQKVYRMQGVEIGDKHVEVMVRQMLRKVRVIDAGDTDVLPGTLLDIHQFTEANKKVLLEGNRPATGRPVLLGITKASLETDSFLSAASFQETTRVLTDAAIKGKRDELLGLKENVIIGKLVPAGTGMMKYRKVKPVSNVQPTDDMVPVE

B1: RNAP α subunit (natural protein, B. subtilis (endogenous), UniProt P20429 1-314, looked up)
chain: MIEIEKPKIETVEISDDAKFGKFVVEPLERGYGTTLGNSLRRILLSSLPGAAVTSIQIDGVLHEFSTIEGVVEDVTTIILHIKKLALKIYSDEEKTLEIDVQGEGTVTAADITHDSDVEILNPDLHIATLGENASFRVRLTAQRGRGYTPADANKRDDQPIGVIPIDSIYTPVSRVSYQVENTRVGQVANYDKLTLDVWTDGSTGPKEAIALGSKILTEHLNIFVGLTDEAQHAEIMVEKEEDQKEKVLEMTIEELDLSVRSYNCLKRAGINTVQELANKTEEDMMKVRNLGRKSLEEVKAKLEELGLGLRKDD
notes: RNAP α subunit, B. subtilis; only the N-terminal domains have density in the structures; also called α1; α2; source: endogenous, B. subtilis; in lysate and purified as part of RNAP
As to B1, the binding result in experiment [1] is “binds”.

B2: RNAP β subunit (natural protein, B. subtilis (endogenous), UniProt P37870 1-1193, looked up)
chain: MTGQLVQYGRHRQRRSYARISEVLELPNLIEIQTSSYQWFLDEGLREMFQDISPIEDFTGNLSLEFIDYSLGEPKYPVEESKERDVTYSAPLRVKVRLINKETGEVKDQDVFMGDFPIMTDTGTFIINGAERVIVSQLVRSPSVYFSGKVDKNGKKGFTATVIPNRGAWLEYETDAKDVVYVRIDRTRKLPVTVLLRALGFGSDQEILDLIGENEYLRNTLDKDNTENSDKALLEIYERLRPGEPPTVENAKSLLDSRFFDPKRYDLANVGRYKINKKLHIKNRLFNQRLAETLVDPETGEILAEKGQILDRRTLDKVLPYLENGIGFRKLYPNGGVVEDEVTLQSIKIFAPTDQEGEQVINVIGNAYIEEEIKNITPADIISSISYFFNLLHGVGDTDDIDHLGNRRLRSVGELLQNQFRIGLSRMERVVRERMSIQDTNTITPQQLINIRPVIASIKEFFGSSQLSQFMDQTNPLAELTHKRRLSALGPGGLTRERAGMEVRDVHYSHYGRMCPIETPEGPNIGLINSLSSYAKVNRFGFIETPYRRVDPETGKVTGRIDYLTADEEDNYVVAQANARLDDEGAFIDDSIVARFRGENTVVSRNRVDYMDVSPKQVVSAATACIPFLENDDSNRALMGANMQRQAVPLMQPEAPFVGTGMEYVSGKDSGAAVICKHPGIVERVEAKNVWVRRYEEVDGQKVKGNLDKYSLLKFVRSNQGTCYNQRPIVSVGDEVVKGEILADGPSMELGELALGRNVMVGFMTWDGYNYEDAIIMSERLVKDDVYTSIHIEEYESEARDTKLGPEEITRDIPNVGEDALRNLDDRGIIRIGAEVKDGDLLVGKVTPKGVTELTAEERLLHAIFGEKAREVRDTSLRVPHGGGGIIHDVKVFNREDGDELPPGVNQLVRVYIVQKRKISEGDKMAGRHGNKGVISKILPEEDMPYLPDGTPIDIMLNPLGVPSRMNIGQVLELHMGMAARYLGIHIASPVFDGAREEDVWETLEEAGMSRDAKTVLYDGRTGEPFDNRVSVGIMYMIKLAHMVDDKLHARSTGPYSLVTQQPLGGKAQFGGQRFGEMEVWALEAYGAAYTLQEILTVKSDDVVGRVKTYEAIVKGDNVPEPGVPESFKVLIKELQSLGMDVKILSGDEEEIEMRDLEDEEDAKQADGLALSGDEEPEETASADVERDVVTKE
notes: RNAP β subunit, B. subtilis; source: endogenous, B. subtilis; in lysate and purified as part of RNAP
Consider B2, for which, in experiment [1], the binding result is on record as “binds”.

B3: δ^NTD (N-terminal domain of the RNAP δ subunit) (protein)
chain: MGIKQYSQEELKEMALVEIAHELFEEHKKPVPFQELLNEIASLLGVKKEELGDRIAQFYTDLNIDGRFLALSDQTWGLRSWYPYDQLDEE
For the molecule B3, the binding result in experiment [2] is reported as “no binding”.

B4: RNAP δ subunit, endogenous (natural protein, B. subtilis (endogenous), UniProt P12464 1-173, looked up)
chain: MGIKQYSQEELKEMALVEIAHELFEEHKKPVPFQELLNEIASLLGVKKEELGDRIAQFYTDLNIDGRFLALSDQTWGLRSWYPYDQLDEETQPTVKAKKKKAKKAVEEDLDLDEFEEIDEDDLDLDEVEEELDLEADDFDEEDLDEDDDDLEIEEDIIDEDDEDYDDEEEEIK
notes: RNAP δ subunit, B. subtilis; NTD residues 1-90, CTR residues 91-173; source: endogenous, B. subtilis MH5636 or LK782; in lysate and purified as part of RNAP
With B4, the binding result in experiment [2] and in experiment [3] was “binds” each time.

Values taken from article PMC7749165, “The δ subunit and NTPase HelD institute a two-pronged mechanism for RNA polymerase recycling” (Nature Communications, 2020).
